# In the supplement of paper PMC9112550, “Optimization of the antimicrobial peptide Bac7 by deep mutational scanning” (BMC Biology, 2022):
# Tested on: Escherichia coli TOP10
# Assay: shrunken log2 fold change of peptide-encoding DNA abundance (4.5 h post-induction vs induction); higher = less antimicrobial activity (less host growth inhibition)
# Details: time post-induction: 4.5 h; library: site-saturation at positions 5, 18, 19, 20
# 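Further: peptides expressed intracellularly from a pBAD plasmid library in pooled LB shake-flask culture, induced with 0.3% L-arabinose, DNA abundance read by NGS, three biological replicates, DESeq2 with apeglm shrinkage.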
row,Sequence,shrunken log2 fold change
1,RRIRLRPPRLPRPRPRPECNPRP,-0.0178
2,RRIRCRPPRLPRPRPRPEETPRP,0.143
3,RRIRCRPPRLPRPRPRPKKCPRP,-0.186
4,RRIRLRPPRLPRPRPRPAMIPRP,-0.223
5,RRIRPRPPRLPRPRPRPQVWPRP,0.202
6,RRIRDRPPRLPRPRPRPAQEPRP,0.185
7,RRIRGRPPRLPRPRPRPGFEPRP,0.813
8,RRIRARPPRLPRPRPRPDQRPRP,0.267
9,RRIRNRPPRLPRPRPRPRSEPRP,0.139
10,RRIRFRPPRLPRPRPRPNMHPRP,-0.377
11,RRIRKRPPRLPRPRPRPNGKPRP,-0.114
12,RRIRYRPPRLPRPRPRPWVIPRP,-0.0317
13,RRIRYRPPRLPRPRPRPWIYPRP,-0.138
14,RRIRDRPPRLPRPRPRPCLHPRP,0.0931
15,RRIRYRPPRLPRPRPRPIHHPRP,-1.62
16,RRIRCRPPRLPRPRPRPEENPRP,0.602
17,RRIRKRPPRLPRPRPRPRTFPRP,0.243
18,RRIRSRPPRLPRPRPRPLTLPRP,-0.599
19,RRIRLRPPRLPRPRPRPWDGPRP,-0.153
20,RRIRQRPPRLPRPRPRPKAWPRP,-0.0334
21,RRIRDRPPRLPRPRPRPPIGPRP,0.849
22,RRIRGRPPRLPRPRPRPYALPRP,0.0375
23,RRIRSRPPRLPRPRPRPDSHPRP,-0.36
24,RRIRKRPPRLPRPRPRPKRRPRP,0.0103
25,RRIRQRPPRLPRPRPRPICYPRP,0.0933

row,Sequence,shrunken log2 fold change
1,RRIRGRPPRLPRPRPRPMHEPRP,0.928
2,RRIRDRPPRLPRPRPRPWCSPRP,-0.348
3,RRIRPRPPRLPRPRPRPHFVPRP,-0.144
4,RRIRCRPPRLPRPRPRPCGEPRP,0.218
5,RRIRWRPPRLPRPRPRPFMWPRP,-0.0278
6,RRIRLRPPRLPRPRPRPMSMPRP,0.125
7,RRIRGRPPRLPRPRPRPILSPRP,0.516
8,RRIRPRPPRLPRPRPRPVDHPRP,0.0611
9,RRIRERPPRLPRPRPRPSKDPRP,-0.664
10,RRIRTRPPRLPRPRPRPRRRPRP,0.411
11,RRIRFRPPRLPRPRPRPGDRPRP,0.151
12,RRIRGRPPRLPRPRPRPIRWPRP,0.577
13,RRIRIRPPRLPRPRPRPPHFPRP,-0.138
14,RRIRERPPRLPRPRPRPGQMPRP,0.0413
15,RRIRLRPPRLPRPRPRPDEQPRP,-0.017
16,RRIRYRPPRLPRPRPRPPSEPRP,-0.0723
17,RRIRKRPPRLPRPRPRPPIGPRP,0.407
18,RRIRIRPPRLPRPRPRPRPRPRP,0.472
19,RRIRNRPPRLPRPRPRPTGDPRP,0.258
20,RRIRTRPPRLPRPRPRPNPSPRP,-0.128
21,RRIRFRPPRLPRPRPRPRSGPRP,0.444
22,RRIRYRPPRLPRPRPRPLGTPRP,-0.227
23,RRIRTRPPRLPRPRPRPEPLPRP,0.0272
24,RRIRFRPPRLPRPRPRPPCHPRP,-0.0556
25,RRIRCRPPRLPRPRPRPTPMPRP,0.534

row,Sequence,shrunken log2 fold change
1,RRIRVRPPRLPRPRPRPSNWPRP,-0.331
2,RRIRWRPPRLPRPRPRPSTPPRP,0.0706
3,RRIRVRPPRLPRPRPRPAQAPRP,0.74
4,RRIRYRPPRLPRPRPRPCRGPRP,-0.157
5,RRIRTRPPRLPRPRPRPRWTPRP,-0.0339
6,RRIRPRPPRLPRPRPRPCVNPRP,-0.0713
7,RRIRIRPPRLPRPRPRPVQWPRP,0.0754
8,RRIRIRPPRLPRPRPRPACYPRP,-0.472
9,RRIRCRPPRLPRPRPRPWQLPRP,-0.263
10,RRIRMRPPRLPRPRPRPGNYPRP,-0.0658
11,RRIRGRPPRLPRPRPRPSISPRP,0.0894
12,RRIRTRPPRLPRPRPRPVWWPRP,0.423
13,RRIRMRPPRLPRPRPRPAAHPRP,0.531
14,RRIRRRPPRLPRPRPRPWSVPRP,0.0267
15,RRIRTRPPRLPRPRPRPLGFPRP,0.046
16,RRIRKRPPRLPRPRPRPIMSPRP,-0.00757
17,RRIRCRPPRLPRPRPRPRYDPRP,-0.596
18,RRIRVRPPRLPRPRPRPHFHPRP,3.23
19,RRIRCRPPRLPRPRPRPLYFPRP,-0.836
20,RRIRVRPPRLPRPRPRPKQYPRP,-0.558
21,RRIRDRPPRLPRPRPRPRGHPRP,0.321
22,RRIRYRPPRLPRPRPRPRRTPRP,-0.202
23,RRIRRRPPRLPRPRPRPVWGPRP,0.359
24,RRIRCRPPRLPRPRPRPVKRPRP,0.0344
25,RRIRLRPPRLPRPRPRPSQCPRP,-0.114

row,Sequence,shrunken log2 fold change
1,RRIRCRPPRLPRPRPRPIMEPRP,-0.231
2,RRIRMRPPRLPRPRPRPTGAPRP,1.25
3,RRIRYRPPRLPRPRPRPDFRPRP,0.129
4,RRIRRRPPRLPRPRPRPWILPRP,-0.0248
5,RRIRDRPPRLPRPRPRPKSCPRP,-0.0117
6,RRIRTRPPRLPRPRPRPGPKPRP,0.152
7,RRIRCRPPRLPRPRPRPEIQPRP,0.141
8,RRIRIRPPRLPRPRPRPLSQPRP,-0.111
9,RRIRWRPPRLPRPRPRPIVWPRP,-0.0161
10,RRIRLRPPRLPRPRPRPFEKPRP,-0.0511
11,RRIRPRPPRLPRPRPRPRRNPRP,-0.0266
12,RRIRIRPPRLPRPRPRPLDIPRP,-0.216
13,RRIRSRPPRLPRPRPRPAWAPRP,0.333
14,RRIRNRPPRLPRPRPRPLCEPRP,-0.107
15,RRIRPRPPRLPRPRPRPKNLPRP,-0.0674
16,RRIRQRPPRLPRPRPRPSKQPRP,-0.0831
17,RRIRFRPPRLPRPRPRPCTKPRP,-0.229
18,RRIRHRPPRLPRPRPRPPMDPRP,-0.309
19,RRIRNRPPRLPRPRPRPEMKPRP,-0.188
20,RRIRHRPPRLPRPRPRPYNRPRP,-0.0244
21,RRIRDRPPRLPRPRPRPPVRPRP,0.0542
22,RRIRWRPPRLPRPRPRPVYSPRP,-0.104
23,RRIRTRPPRLPRPRPRPIHSPRP,-0.191
24,RRIRMRPPRLPRPRPRPNMAPRP,0.155
25,RRIRFRPPRLPRPRPRPGICPRP,-0.0925

row,Sequence,shrunken log2 fold change
1,RRIRHRPPRLPRPRPRPVRYPRP,-0.551
2,RRIRWRPPRLPRPRPRPAFHPRP,0.153
3,RRIRPRPPRLPRPRPRPMWLPRP,0.217
4,RRIRTRPPRLPRPRPRPKQPPRP,0.0517
5,RRIRNRPPRLPRPRPRPLIYPRP,-0.114
6,RRIRHRPPRLPRPRPRPGRLPRP,0.129
7,RRIRYRPPRLPRPRPRPTFQPRP,-0.0033
8,RRIRFRPPRLPRPRPRPDPGPRP,-0.162
9,RRIRSRPPRLPRPRPRPSTNPRP,-0.546
10,RRIRMRPPRLPRPRPRPGFRPRP,0.525
11,RRIRWRPPRLPRPRPRPEICPRP,0.127
12,RRIRIRPPRLPRPRPRPKFMPRP,-0.321
13,RRIRNRPPRLPRPRPRPEPDPRP,0.0698
14,RRIRERPPRLPRPRPRPIYQPRP,-0.394
15,RRIRTRPPRLPRPRPRPIKGPRP,-0.331
16,RRIRARPPRLPRPRPRPVIQPRP,0.0904
17,RRIRTRPPRLPRPRPRPLNEPRP,-0.0228
18,RRIRNRPPRLPRPRPRPYSPPRP,-0.276
19,RRIRFRPPRLPRPRPRPACKPRP,-0.0419
20,RRIRTRPPRLPRPRPRPYNYPRP,-0.866
21,RRIRARPPRLPRPRPRPRQVPRP,0.2
22,RRIRPRPPRLPRPRPRPKDVPRP,-0.115
23,RRIRRRPPRLPRPRPRPCGPPRP,0.517
24,RRIRCRPPRLPRPRPRPAYGPRP,0.13
25,RRIRPRPPRLPRPRPRPRWKPRP,0.176
